Reference: US20070248589A1 (GOVERNMENT OF THE UNITED STATES OF AMERICA AS REPRESENTED …, published 2007)

Key:
Hb12 cells = assay: Bcl-2 expression assay, SPATIAL-EGFP transfected Bcl-2 expressing thymocyte cell line; type: cell-based, mouse; settings: Bcl-2 expression, FIG. 17B
Experimental: The mouse thymocyte cell line Wehi 7.2 and its variant Wbcl-2, which over expresses bcl-2, were maintained in DMEM supplemented with 10% heat-inactivated FBS, 2 mM glutamine, 100 U/ml penicillin, and 0.1 mg/ml streptomycin. Cells were grown at 37° C. in a humidified atmosphere with 5% CO2.
Transient transfections were performed using either lipids (Lipofectamine 2000 or FreeStyle 293 Expression System, each supplied by Invitrogen, Rockville, Md.) or calcium phosphate (Mammalian Transfection Kit; Stratagene, La Jolla, Calif.) or electroporation. Manufacturer instructions were followed for lipid and calcium phosphate transfections. For electroporation, the following procedure was used: Before transfection, Wehi cell and Wbcl-2 cells were counted and suspended in fresh complete DMEM without antibiotics at 5×10^5 cells/ml in a 15 cm dish. On the day of transfection, the cells were washed with PBS twice and were suspended in serum free DMEM at 6.25×10^6 cells/mL Aliquots of 800 μl cell suspension were transferred to a 4 mm electroporation cuvette and 10 μg of plasmid DNA solution was added. After 10 minutes incubation on ice, the cells were electroporated under the condition of 310 V, 725 ohms resistance, and 1050 μF capacitance. The transfected cells were incubated on ice for 10 minutes and suspended in complete DMEM in 10 cm dishes at the density of 7.5×10^4 viable cells/ml. […]

lymphoid cells = assay: Thymocyte depletion of fetal thymic organ culture (FTOC); type: cell-based, mouse; settings: after 14 days, flow cytometric analysis
Excerpt: SPATIAL expression cannot be detected in thymocytes using RT-PCR on RNA obtained from highly purified CD45+ thymocytes prepared by flow cytometer sorting from normal mice. Actin and cyclophilin mRNA was readily detected using the same RNA samples. To examine SPATIAL expression in stromal cells, thymii from day 14 mouse fetuses were harvested and cultured in fetal thymic organ culture (FTOC). The FTOC was specifically depleted of thymocytes using 2-deoxyguanosine treatment 2-deoxyguanosine is a nucleotide analog that is toxic to thymocytes. […] These cultures can be re-colonized by stem cells and are fully capable of supporting thymopoiesis (Hare et al., Semin. Immunol., 11(1):3-12, 1999). Using RT-PCR, it was shown that SPATIAL is abundantly expressed in thymic stromal cells obtained from FTOC (Flomerfelt et al., Genes and Immunity, 1:391-401, 2000).

GST-SPATIAL(S) = target: T1, GST-SPATIAL(S) (Mus musculus, UniProt Q7TSD4); assay: GST pulldown assay with GST-SPATIAL short isoform; type: binding; settings: 35S-methionine labeled in vitro translated protein
T1 construct: made in house
T1 sequence (Q7TSD4 with tags, fused parts or gaps isoform Q7TSD4-7 limits assumed): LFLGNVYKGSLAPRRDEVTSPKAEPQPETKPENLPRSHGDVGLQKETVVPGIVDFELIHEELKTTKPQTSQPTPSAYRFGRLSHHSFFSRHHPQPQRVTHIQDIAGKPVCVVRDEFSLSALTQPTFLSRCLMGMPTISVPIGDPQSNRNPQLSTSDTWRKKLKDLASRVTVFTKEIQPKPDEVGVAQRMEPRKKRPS
Experimental: (§1) Eighteen cDNA clones identified in the yeast two-hybrid system were tested in an in vitro glutathione-S-transferase (GST) pulldown assay, as described in Ausubel et al., Current Protocols in Molecular Biology, Greene Publishing Associates, updated November 2003, Chapter 20, Analysis of Protein Interactions, Unit 20.2, Affinity Purification of Proteins Binding to GST Fusion Proteins.
(§2) Briefly, a GST-SPATIAL fusion construct was produced by cloning SPATIAL cDNA(s) into pGEx5X1 expression vector using standard molecular cloning techniques. GST or GST-SPATIAL fusion protein were expressed in 1-1000 ml bacterial cultures grown for 3-4 hours until OD600 reached 0.5. Then, plasmid expression was induced for 1.5-4 hours by the addition of ITPG to a final concentration of 0.11 mM. GST or GST-fusion proteins were purified using glutathione-Sepharose beads as described in Ausubel et al., Current Protocols in Molecular Biology, Greene Publishing Associates, updated November 2003, Chapter 20, Analysis of Protein Interactions, Unit 20.2, Affinity Purification of Proteins Binding to GST Fusion Proteins.
(§3) A coupled in vitro transcription and translation system (Promega) was used according to the manufacturer's instructions to produce radiolabeled protein from cDNAs to be tested. Radiolabeled proteins were mixed with either purified GST or GST-SPATIAL. Then, GST-containing protein complexes were purified by centrifugation from the reaction mixtures using glutathione-coated Sepharose beads. Bound proteins were eluted from the beads with SDS-PAGE loading buffer heated to 72-85° C., separated on polyacrylamide gels, and visualized by autoradiography. Specific interactions between GST-SPATIAL and in vitro translated proteins were indicated by the presence of a radiolabeled in vitro translated protein in the GST-SPATIAL-containing samples, but not in the GST-alone samples.
(§4) GST pulldown assays were performed as described in Example 9 using GST-SPATIAL(L) and GST-SPATIAL(S) and each of the Uba3 mutants described in this example.

GST-SPATIAL(L) = target: T2, GST-SPATIAL(L) (Mus musculus, UniProt Q7TSD4); assay: GST pulldown assay with GST-SPATIAL long isoform; type: binding; settings: 35S-methionine labeled in vitro translated protein
T2 construct: made in house
T2 sequence (Q7TSD4 with tags, fused parts or gaps isoform Q7TSD4-6 limits assumed): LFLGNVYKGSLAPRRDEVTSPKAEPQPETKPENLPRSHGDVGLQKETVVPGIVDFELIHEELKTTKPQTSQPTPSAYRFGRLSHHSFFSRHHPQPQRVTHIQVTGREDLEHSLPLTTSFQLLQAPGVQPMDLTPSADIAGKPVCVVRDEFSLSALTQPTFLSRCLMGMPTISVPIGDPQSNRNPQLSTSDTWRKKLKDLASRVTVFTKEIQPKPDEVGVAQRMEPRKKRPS
Experimental: as §1, §2, §3, §4

[1] = target: T3, Uba3 deletion mutant Delta364-912 (mouse, UniProt Q8C878 22-462, 35S-methionine labeled); assay: GST pulldown of 35S-labelled in vitro translated Uba3 mutant
T3 construct: Amino acids 109-291 are deleted (PstI fragment removed); also called PstI digest
Experimental: as §3, §4

## Bcl-2: human Bcl-2 gene expressed in Hb12 cells, inhibits apoptosis
Hb12 cells
  reversal of growth suppressive effect of SPATIAL-EGFP transfection: ineffective to reverse the growth suppressive effect

## Nc1nc2c(ncn2[C@H]2C[C@H](O)[C@@H](CO)O2)c(=O)[nH]1 [2-deoxyguanosine]
Lymphoid cells
  lymphoid cells depleted: greater than 98%

## Delta364-912: Uba3 deletion mutant, amino acid deletion 109-291 (PstI digest)
GST-SPATIAL(S)
  interaction with GST-SPATIAL(S): does not interact
GST-SPATIAL(L)
  interaction with GST-SPATIAL(L): does not interact

B1: Delta941-1365: Uba3 deletion mutant, amino acid deletion 301-441 (protein)
chain: MAVDGGCGDTGDWEGRWNHVKKFLERSGPFTHPDFEPSTESLQFLLDTCKVLVIGAGGLGCELLKNLALSGFRQIHVIDMDTIDVSNLNRQFLFRPKDVGRPKAEVAAEFLNDRVPNCNVVPHFNKIQDFNDTFYRQFHIIVCGLDSIIARRWINGMLISLLNYEDGVLDPSSIVPLIDGGTEGFKGNARVILPGMTACIECTLELYPPQVNFPMCTIASMPRLPEHCIEYVRMLQWPKEQPFGDGVPLDGDDPEHIQWIFQKSIERASQYNIRGVTYRLTQGVVKRIIPAVASTNAVIA
GST-SPATIAL(S)
  interaction with GST-SPATIAL(S): interact
GST-SPATIAL(L)
  interaction with GST-SPATIAL(L): interact

B2: GST-SPATIAL long isoform fusion protein (other)
chain: T2 sequence (Q7TSD4 with tags, fused parts or gaps isoform Q7TSD4-6 limits assumed)
notes: SPATIAL cDNA cloned into pGEx5X1, expressed in bacteria and held on glutathione-Sepharose beads; not shown: glutathione-S-transferase (GST) encoded by the pGEx5X1 expression vector
[1]
  binding result: no binding

B3: GST-SPATIAL short isoform fusion protein (other)
chain: T1 sequence (Q7TSD4 with tags, fused parts or gaps isoform Q7TSD4-7 limits assumed)
notes: as for B2
[1]
  binding result: no binding

B4: Delta24-646: Uba3 deletion mutant, amino acid deletion 1-202 (protein)
chain: TLELYPPQVNFPMCTIASMPRLPEHCIEYVRMLQWPKEQPFGDGVPLDGDDPEHIQWIFQKSIERASQYNIRGVTYRLTQGVVKRIIPAVASTNAVIAAVCATEVFKIATSAYIPLNNYLVFNDVDGLYTYTFEAERKENCPACSQLPQNIQFSPSAKLQEVLDYLTNSASLQMKSPAITATLEGKNRTLYLQSVTSIEERTRPNLSKTLKELGLVDGQELAVADVTTPQTVLFKLHFT
GST-SPATIAL(S)
  interaction with GST-SPATIAL(S): interact
GST-SPATIAL(L)
  interaction with GST-SPATIAL(L): interact
